Primed or numbered codes have the meaning given here. Ends that are not written are not given here. FITC′ = not defined here
Columns and labels:
[1] = biological target: T1, TGFβ receptor II (TβR2) on human dermal fibroblasts (HDFs) (human, UniProt P37173 23-567); assay: immunofluorescence of HDFs with anti-TβR2 antibody and FITC signal of the peptide
T1 construct: whole, on cells; Endogenous receptor on HDFs cultured at 4.5 g/L glucose; also called TGFβRII

[2] = biological target: T2, TGFβ receptor II (TβR2), R&D, coated on ELISA plate; assay: ELISA-like binding assay, receptor coated on plate, FITC fluorescence of bound peptide
T2 construct: Bought protein (R&D), coated at 20 nM; also called TGFβRII; TβRII
From the text: We synthesized a peptide […]-FITC (PTβR2I), based on the sequence from a phage display library that binds specifically to […] and interactions between TβR2 and TGFβ1.63-65 We first examined the specific binding of PTβR2I with TβR2 using an ELISA-like binding assay. TGFβ receptor I (TβR1), TGFβ receptor III (TβR3), and IgG were used as controls. […] This finding was further validated on the cellular level. We used human dermal fibroblasts (HDFs) to study the binding affinity of PTβR2I to TβR2 under a glucose level of 4.5 g/L, which mimics the hyperglycemic conditions of diabetes. With PTβR2I added, the HDF binding sites on HDF of TβR2 were occupied, so the TβR2 could not be detected by immunofluorescence (FIG. 5F).
To test the ability of PTβR2I to bind to TβR2, a binding assay was performed. TβR1, TβR3, and IgG were used as controls. In brief, ELISA plates (Costar) were coated with 20 nM of TβR2 (R&D), TβR1 (R&D), or IgG (R&D) and incubated at 4° C. overnight. The plate was blocked with Tris-buffered Saline (TBS) containing 5% bovine serum albumin (BSA) for 1 hour. Then PTβR2I (0.5 μg/mL) was added to the plate and incubated for 2 hours. The fluorescence intensity was read by a microplate reader (Molecular Devices) with a predefined wavelength (excitation/emission=485/535 nm).

T2 sequence (P37173 whole entry): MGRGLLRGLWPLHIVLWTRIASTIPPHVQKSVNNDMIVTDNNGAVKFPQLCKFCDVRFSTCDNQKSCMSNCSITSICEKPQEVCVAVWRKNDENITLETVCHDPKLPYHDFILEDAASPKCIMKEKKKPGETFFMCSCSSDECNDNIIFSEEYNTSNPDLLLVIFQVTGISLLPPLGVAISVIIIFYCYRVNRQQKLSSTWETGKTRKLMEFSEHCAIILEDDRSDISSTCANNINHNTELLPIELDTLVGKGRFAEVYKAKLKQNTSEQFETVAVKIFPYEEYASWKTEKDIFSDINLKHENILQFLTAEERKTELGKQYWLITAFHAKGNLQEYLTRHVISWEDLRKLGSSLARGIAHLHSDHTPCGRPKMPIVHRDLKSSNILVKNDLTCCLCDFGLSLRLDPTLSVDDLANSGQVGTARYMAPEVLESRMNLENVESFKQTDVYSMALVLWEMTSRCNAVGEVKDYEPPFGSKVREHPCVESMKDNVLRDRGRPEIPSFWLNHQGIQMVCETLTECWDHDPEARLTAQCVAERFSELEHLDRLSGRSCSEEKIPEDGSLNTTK
T1 sequence (P37173 23-567): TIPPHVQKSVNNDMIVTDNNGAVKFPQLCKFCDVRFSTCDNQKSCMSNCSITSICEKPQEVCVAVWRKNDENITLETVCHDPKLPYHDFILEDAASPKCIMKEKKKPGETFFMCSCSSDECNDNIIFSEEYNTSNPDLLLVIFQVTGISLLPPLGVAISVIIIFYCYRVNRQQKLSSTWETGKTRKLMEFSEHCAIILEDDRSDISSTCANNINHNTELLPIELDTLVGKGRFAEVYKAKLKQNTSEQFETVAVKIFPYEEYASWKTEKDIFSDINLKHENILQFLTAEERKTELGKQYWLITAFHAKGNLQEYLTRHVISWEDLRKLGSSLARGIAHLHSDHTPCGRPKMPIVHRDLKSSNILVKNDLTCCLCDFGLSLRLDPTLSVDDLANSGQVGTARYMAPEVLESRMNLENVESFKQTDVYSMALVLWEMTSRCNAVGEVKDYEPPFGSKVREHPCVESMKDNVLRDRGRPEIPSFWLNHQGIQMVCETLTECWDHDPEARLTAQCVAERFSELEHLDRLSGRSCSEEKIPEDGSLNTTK

binding result [1]: binds
Kd [2]: 3.4 µM
Binder: ECGLLPVGRPDRVWRLCK-{FITC′} (cysteine pairing not given here) [peptide-based TGFβ receptor II inhibitor (PTβR2I), ECGLLPVGRPDRVWRLCK-FITC]
